Data as given in doi:10.1101/212704 (bioRxiv, 2017).

T1: His-tagged MPS1 (UniProt P33981 1-857)
T1 sequence (looked up): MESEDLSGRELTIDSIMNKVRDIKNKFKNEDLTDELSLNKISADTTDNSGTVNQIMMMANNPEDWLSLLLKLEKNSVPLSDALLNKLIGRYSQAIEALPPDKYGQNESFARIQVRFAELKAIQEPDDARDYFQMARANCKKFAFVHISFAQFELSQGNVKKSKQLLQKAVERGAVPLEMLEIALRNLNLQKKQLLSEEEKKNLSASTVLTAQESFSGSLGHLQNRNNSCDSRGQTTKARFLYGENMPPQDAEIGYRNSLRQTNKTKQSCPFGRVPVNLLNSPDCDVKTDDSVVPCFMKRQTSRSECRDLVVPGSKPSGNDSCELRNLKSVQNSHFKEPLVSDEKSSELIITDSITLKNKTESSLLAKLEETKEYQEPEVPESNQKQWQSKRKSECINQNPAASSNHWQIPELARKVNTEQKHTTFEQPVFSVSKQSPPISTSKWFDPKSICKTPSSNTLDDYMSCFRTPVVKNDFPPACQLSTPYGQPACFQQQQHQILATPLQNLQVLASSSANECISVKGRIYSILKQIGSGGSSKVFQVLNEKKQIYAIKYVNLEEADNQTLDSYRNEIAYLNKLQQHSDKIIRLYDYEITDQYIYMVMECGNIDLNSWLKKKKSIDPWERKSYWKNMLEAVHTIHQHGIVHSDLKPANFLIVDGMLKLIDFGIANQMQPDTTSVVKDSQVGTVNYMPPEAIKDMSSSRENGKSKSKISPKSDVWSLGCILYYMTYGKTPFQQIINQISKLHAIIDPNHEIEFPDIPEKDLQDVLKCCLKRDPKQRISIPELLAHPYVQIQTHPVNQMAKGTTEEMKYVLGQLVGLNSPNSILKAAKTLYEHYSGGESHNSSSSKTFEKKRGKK

B1: GST-MAD1-MIM (domain or fragment, human, UniProt Q9Y6D9 485-584, looked up)
chain: SSAEQSFLFSREEADTLRLKVEELEGERSRLEEEKRMLEAQLERRALQGDYDQSRTKVLHMSLNPTSVARQRLREDHSQLQAECERLRGLLRAMERGGTV
B2: MAD2^LARQ (L13A/R133E/Q134A) (natural protein, UniProt Q13257 2-205, looked up)
chain: ALQLSREQGITARGSAEIVAEFFSFGINSILYQRGIYPSETFTRVQKYGLTLLVTTDLELIKYLNNVVEQLKDWLYKCSVQKLVVVISNIESGEVLERWQFDIECDKTAKDDSAPREKSQKAIQDEIRSVIEAITATVTFLPLLEVSCSFDLLIYTDKDLVVPEKWEESGPQFITNSEEVRLRSFTTTIHKVNSMVAYKIPVND
B3: GST-tagged MAD1-CTD globular subdomain (638-718 residues) (domain or fragment, human, UniProt Q9Y6D9 638-718, looked up)
chain: GYQIDITTENQYRLTSLYAEHPGDCLIFKATSPSGSKMQLLETEFSHTVGELIEVHLRRQDSIPAFLSSLTLELFSRQTVA
B4: GST-MAD1-NTD (domain or fragment, human, UniProt Q9Y6D9 1-485, looked up)
chain: MEDLGENTMVLSTLRSLNNFISQRVEGGSGLDISTSAPGSLQMQYQQSMQLEERAEQIRSKSHLIQVEREKMQMELSHKRARVELERAASTSARNYEREVDRNQELLTRIRQLQEREAGAEEKMQEQLERNRQCQQNLDAASKRLREKEDSLAQAGETINALKGRISELQWSVMDQEMRVKRLESEKQELQEQLDLQHKKCQEANQKIQELQASQEARADHEQQIKDLEQKLSLQEQDAAIVKNMKSELVRLPRLERELKQLREESAHLREMRETNGLLQEELEGLQRKLGRQEKMQETLVGLELENERLLAKLQSWERLDQTMGLSIRTPEDLSRFVVELQQRELALKDKNSAVTSSARGLEKARQQLQEELRQVSGQLLEERKKRETHEALARRLQKRVLLLTKERDGMRAILGSYDSELTPAEYSPQLTRRMREAEDMVQKVHSHSAEMEAQLSQALEELGGQKQRADMLEMELKMLKSQSS

How the values were obtained:
Test in all cases: pull-down
[1] = biological target: 6×His-tagged wild type MAD2 (UniProt Q13257 2-205)
untagged MAD2^L13A = untagged MAD2^L13A (UniProt Q13257 2-205, L13A)
GST-MAD1-NTD = biological target: B4
His-tagged MPS1 = biological target: T1, His-tagged MPS1

B1
binding result [1]: binds
binding result (untagged MAD2^L13A): binds

B2
binding result (GST-MAD1-NTD): binds

B3
binding result (untagged MAD2^L13A): binds

B4
binding result (His-tagged MPS1): binds
